# Measured values from paper PMC10873347.
# Target: actin (pyrene-labeled filaments)
# Assay: pyrene-actin fluorescence quenching titration
# Conditions: sites S3
# Sequence of human cofilin-1 (from UniProt P23528) cofilin S3D,G4L (P23528 whole entry, looked up, stated change not applied): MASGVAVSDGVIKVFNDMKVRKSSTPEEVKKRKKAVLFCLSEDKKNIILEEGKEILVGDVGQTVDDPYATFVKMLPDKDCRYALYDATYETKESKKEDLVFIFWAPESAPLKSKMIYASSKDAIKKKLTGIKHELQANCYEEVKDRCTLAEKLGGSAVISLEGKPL
# Sequence of human cofilin-1 (from UniProt P23528) cofilin S3D (P23528 whole entry, looked up, stated change not applied): as above
# Sequence of human cofilin-1 (from UniProt P23528) cofilin S3D,G4F (P23528 whole entry, looked up, stated change not applied): as above
substance,measurement,setting,value
"human cofilin-1 (from UniProt P23528) cofilin S3D,G4F",other: K0.5,reference: cofilin G4F,same; reference 1.0
"human cofilin-1 (from UniProt P23528) cofilin S3D,G4L",other: K0.5,reference: cofilin G4L,same; reference 0.59
human cofilin-1 (from UniProt P23528) cofilin S3D,other: K0.5,reference: cofilin WT,weaker; reference 0.61
